The nature of this data set: label from the status in PepcDB records.
On to “AAKQDVKVFSEDGTSKVVEILADMTARDLCQLLVYKSHCVDDNSWTLVEHHPHLGLERCLEDHELVVQVESTMASESKFLFRKNYAKYEFFK”, for which the protein production result is given as “failed”.
Turning to “AALAAKVRTLGPSMTRSMQRVAEAVAGDPAGCAALTVTGLAELTGTSEATVVRTARLLGYPGYRDLRLALAGLAAQQQSGRAPAITTDIAVDDPIADVVAKLAYDEQQTL”, the protein production result was “failed”.
“AAPPAPAAKPGSPKKRGKTEVNESLLTPRFYTTDFDEMEQLFNAEINKQLNQDEFDALLQEFKTDYNQTHFIRNPEFKEAADKMQGPLRQIFVEFLERSCTAEFSGFLLYKELGRRLKKTNPVVAEIFSLMSRDEARHAGFLNKGLSDFNLALDLGFLTKARKYTFFKPKFIFYATYLSEKIGYWRYITIFRHLKANPEYQVYPIFKYFENWCQDENRHGDFFSALLKAQPQFLNDWKAKLWSRFFCLSVYITMYLNDCQRSAFYEGIGLNTKEFDMHVIYETNRTTARIFPAVPDVENPEFKRKLDRMVDINLKIISIGESNDLPLVKNLKRVPLIAQLVSEIIAAYLMPPIESGSVDFAEFEPKLVY”: the protein production entry was “failed”.
For “AAQEKVVKLKIVQTSDVHGNYYPYNFITRKDWQGSLARIYAFVEKEREQYKENLILLDNGDILQGQPTAYYYNYIDTVSPHLCAEMMNYMKYDAGNMGNHDVETGRAVFDRWINTCDFPVLGANIIDISTGEPHLPPYKVMERDGVKIVILGMITPAIPAWLSENLWKGLRFDDMEETARKWMKIIREKENPDLMIGLFHAGQEAFKMSGKYNENASLSVAKNVPGFDIVLMGHDHARECKKVMNVAGDSVLVIDPASNGIVLSNIDVTLKLKDGKVRSKDIKGVLTETKDYGISEDFMKNFAPQYDTVRNFVSK”, the protein production entry is “failed”.
To “AAQGFVFNLDNPIFKDRRVREALSLLWDFDWINRRVMRNFYVREQSYFPKSDMAATELPTPAELKILEPLRGQVPDEVFTTVYQPPKTDGSGYIRDKQLQALKLLAEAGWHPKNNKLVNAAGEPMVFSFLDGQGGFDRLILPFKRTLAQIGITLDFLRIDSAQYINRLNARDYDMIVVSLPKNGNPIISPGRELYNLYGSQSATEVGSSNAMVLRNPAVDTLIDGLVSANTRNDMVLYARALDRVLQWGYYMIPNYYSK” belongs “failed”; to “ADIVNLQGVTGGNTYSVPAVTMDLLSGKDVAVEEFPRKLLTFKEKLGEGQFGEVHLCEVEGMEKFKDKDFALDVSANQPVLVAVKMLRADANKNARNDFLKEIKIMSRLKDPNIIHLLAVCITDDPLCMITEYMENGDLNQFLSRHEPPNSSSSDVRTVSYTNLKFMATQIASGMKYLSSLNFVHRDLATRNCLVGKNYTIKIADFGMSRNLYSGDYYRIQGRAVLPIRWMSWESILLGKFTTASDVWAFGVTLWETFTFCQEQPYSQLSDEQVIENTGEFFRDQGRQTYLPQPAICPDSVYKLMLSCWRRDTKNRPSFQEIHLLLLQQGDE”, “failed”; to “AELQQTEKASAKKQDKAEIRNVIVMIGDGMGTPYIRAYRSMKNNGDTPNNPKLTEFDRNLTGMMMTHPDDPDYNITDSAAAGTALATGVKTYNNAIGVDKNGKKVKSVLEEAKQQGKSTGLVATSEINHATPAAYGAHNESRKNMDQIANSYMDDKIKGKHKIDVLLGGGKSYFNRKNRNLTKEFKQAGYSYVTTKQALKKNKDQQVLGLFADGGLAKALDRDSKTPSLKDMTVSAIDRLNQNKKGFFLMVEGSQIDWAAHDNDTVGAMSEVKDFEQAYKAAIEFAKKDKHTLVIATADHTTGGFTIGANGEKNWHAEPILSAKKTPEFMAKKISEGKPVKDVLARYANLKVTSEEIKSVEAAAQADKSKGASKAIIKIFNTRSNSGWTSTDHTGEEVPVYAYGPGKEKFRGLINNTDQANIIFKILKTGK”, “failed”.
In the case of “AEVDQATKPAEAKYYIAGTITDATTGQELTTAKVTLGDKSVTSSFNEQVNYKAEGYALVVSADGYYPVKRQVYLNQVSDGQTSVATVNVALVSVEAAVIPPVVPPTDPETDINEGEATKVADKAVEVAKPSESTVTDMLAGTTATPEEKKALDETLEMAGGMKVGETTPEVLADGSILAITPVKFTNPIQDAPAMVPYFYNEGCELTGDVKEVAAPVTRADGAVAADIQKAFLSNAAKALNMNAGFVQKIGYTRISVLNGYSILGYTIKGQLVSKKLTFLISGKYYEGIVSYQKSVMIYPNYYSHDSHDSHDSHGFNPNAGGGSND” it was “not failed”; in that of “AFLNKHFAKKNHNISVDELSHALELTDKAELTEENNILEGIIRFGGETAKEVMTSRLDVVDLDIRTPFKDVIQCIIDNAYSRIPIYSGTRDNIKGVLYIKDLLPHLNKGDNFRWQSLIRPAYFVPETKMIDDLLRDFQANKIHIAIVVDEFGGTSGIVTMEDIIEEIVGEIHDEYDD”, “not failed”; in that of “AGKQNEVELVAEKQLAFPLDEQTYYLSKSMFQFEENGKEYLHFENTQKSLYDIVIFDIENQQIAKRIPLHKTGPNGLPAVFGSRPSPDSQYILVAQNNISRLSSINSQGEIIRNYNFQTPEGRFTPLSFGSYYNAPAFIKDSCIFLRQEILKPDMKKEDWPRTHMFASQDLRTGEVKWIPIFYPPIFKEEYDNIAGGYGFSYDYNYKESRLVCGFFGYDSLMVTDDLKHIRWYNAKSRYLKSMKPKLGNSMEGINAIIKLNENPRYWHIMYDKYRNVYYRFAEMPYKLAPNESPYETPKGKEFSVIVLNADFEIIGETKFPGKKYFYKMSFVGREGLYISENNLENPQFDENKLVFTCFKIKNASPNK”, “not failed”.
In the case of “AGVSDTAASVCITITAPSKAWNIAGLKCAQIIFSNPSDAEHWQQLSPVIKDGASTLGLIAAEAAYRYGTDFLNQEVAYLKNNHDFLLHEIPKRIPGAKITPMQATYLMWIDFRDTTIEGSPSEFFIEKAKVAMNDGAWFGEDGTGFCRLNFATSREVLEEAIDRMAKAVSHHT” it was “failed”; in that of “AHKYKRAEVVQNALLELSHIATQVSSLEEFYLGVHHHLKQLISADNFFIATLDVNSGAISVPFFADEKDAHPSQLYPEQSLSTLLQQGLTGYVFRTGQTLLCDESKVDELVNAEEIVNLGSPCHLWLGVPIKHEDIVTAVLVVQTYDTNVSYGDIEVELMTFICHHITGVMERLKHQEQLEQAIQQ”, “not failed”.
As to “AHTKISPLGIDTLCFKVSTNPGQPLQPIAKVASGGELSRISLAIQVITAQKVDTPSLIFDEVDVGISGPTAAVVGKMLRTLGESTQVLCVTHLPQVAGCGHNQLFVAKHTKSGKTETQMRALNLEERVEELARLLGGTQITAHTLANAKELLNAA”, the protein production entry is “failed”.
Consider “AIAASALEQFVNNVRQLSAQGQMTQLCELINKSGELLAKNLSHLDTVLGALDIQEHSLGVLAVLFVKFSMPNIPDFETLFSQVQLFISTCNGEHIRYATDTFAGLCHQLTNALVERKQPLRGISILKQAIDKMQMNTNQLTSVHADLCQLCLLAKCFKPAVPFLELDMMDICKENGAYDAKHFLCYYYYGGMIYTGLKNFERALYFFEQAITTPAMAVSHIMLEAYKKYILVSLILHGKVQQLPKYTSQIVGRFIKPLSNAYHELAQIYATNNPAELRALVNKHSETFTRDNNSGLVKQCLSSLYKKNIQRLTKTFLTLSLQDMASRVQLSGPQEAEKYVLHMIEDGEIYASINQKDGMVCFHDNPEKYNNPAMLHKIDQEML”, for which the protein production result is reported as “not failed”.
Take “AIAASLSDQSGSIGSEQTRPSGAIPVESLPPQALEQLIASLQQEVEQLADALQQLNFANQRWTLCKQSIEAFAEETTRVDLPGAQSRATDAISSTASAKPETSVEVNQNQRLLVPLSRSLYVLGRVINPERCLIDIGTGYHVERKLADAAEFFDRRLKHVRGSMRQLTLKIDQNQQQMQTIREILVRKLAGAQQAAEHT”: the protein production entry is reported as “failed”.
In the case of “AIAEALWTNKIEDPLSLMSFTVPPLRLLSAAMWQVTERRQVKHYGMLEEFVSLVTETIPELLNQHQRAQLILGLRARHLLELCRGKHQGSLKEIQPHLKRLCRPRVNKEFADEDMEESEACFLDLVRTLISNPKEKEHYFQNIFPEEYGPKFDKNLHALMEDFLLKLDRMVSVPDLSETVSWLRTCPSLLDDCIDSVSVPKDMKSLLEHHTAKGNLQDSEGNNCTFSSQSLPPLVQVVISSDHTESGEPSDLNGQDNDDEQASKTSSDGWTIKKIKLKTETEEEDNDQNWPITEAKSTGTRDGYDDGCLGEEPNQTQS” it was “failed”.

These data come from a protein production outcome set (Wang et al. 2014).
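Further: failed if final PepcDB status was selected cloned or expressed and not failed if soluble or beyond.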
